Experimental data from US4137307A, “Process for preparing haptoglobin aqueous solution using strong anion exchanger” (The Green Cross Corporation, priority 1973, dated 1979).
Values belong to the compound of their own block, whether it stands above or below them.

What was measured:
[1] = tested on: hemoglobin; assay: Residual hemoglobin-binding capacity of haptoglobin after heat treatment (60° C., 10 hours); type: physicochemical; settings: for Residual hemoglobin-binding capacity of haptoglobin after heat treatment: haptoglobin solution of Example 1, 60° C., 10 hours
Method: In this example, the relation between the amount used and the stabilizing effects of various stabilizers was examined by measuring the residual hemoglobin-binding capacity of haptoglobin after heat treatment.
The stabilizers used were glycine and alanine as neutral amino acids, and mannitol and glucose as saccharides. Each of the said stabilizers was dissolved in haptoglobin solution in such proportions as shown in Table 7 and then heated at 60° C. for 10 hours. Thereafter, the hemoglobin-binding capacity of the haptoglobin of the solution was measured, and the ratio thereof to the value before heat treatment represented by percentage.
For comparison, the haptoglobin solution without addition of stabilizer was subjected to the same heat treatment as above, and the hemoglobin-binding capacity of haptoglobin of the solution was measured.

[2] = tested on: hemoglobin; assay: as above; type: physicochemical; settings: dialysate of Example 3
[3] = tested on: arterial blood pressure of the dog; assay: Hypotensive activity (arterial blood pressure of the dog before and after administration); type: in vivo; settings: less than 10% evaluated as hypotensive activity negative
Method: (§1) The acute toxicity was represented by LD50 measured when the aqueous haptoglobin solution was intravenously injected into mice and rats. The hypotensive activity was represented by the ratio of arterial blood pressure of the dog before and after administration of haptoglobin solution. A ratio less than 10% was evaluated as hypotensive activity negative. The measurement of HB-Ag was made by the radioimmunoassay method (Sadatake Kato et al.: Japanese Patent Publication No. 49,919/73) using Ausria-125 kit, products of Abbott Co.

[4] = tested on: hemoglobin; assay: Hemoglobin-binding capacity of haptoglobin (polyacrylamide gel thin layer electrophoresis, benzidine staining); settings: maximum addition of hemoglobin with no free hemoglobin observed
[5] = tested on: Mice; assay: Acute toxicity, LD50, intravenous, mice; type: in vivo
Method: as §1

[6] = tested on: Rats; assay: Acute toxicity, LD50, intravenous, rats; type: in vivo
Method: as §1

[7] = tested on: HB-Ag; assay: HB-Ag measurement by radioimmunoassay (Ausria-125 kit); parameters: species or system hepatitis B virus
Method: as §1

[8] = tested on: rabbits; assay: Survival of rabbits after haptoglobin and/or hemoglobin administration; type: in vivo; settings: fourth day, 10 tested
Description: (§2) Thirty mature rabbits of body weight ranging from 2.3 to 2.9 kg were equally divided into 3 groups (10 rabbits per group), and continuously administered with haptoglobin and/or hemoglobin, and then the survival of the rabbits was observed. At the end of the observation, the survived rabbits were anatomized, and various organs thereof were subjected to histopathological examination.
(§3) A 5% solution of haptoglobin in isotonic sodium chloride solution prepared according to the present invention was continuously administered drop-wise intravenously once a day at a dose of 0.8 g/kg (body weight).
(§4) A 10% solution of hemoglobin in isotonic sodium chloride solution isolated from red blood cells of the rabbit was continuously administered drop-wise intraveneously once a day at a dose of 0.4 g/kg (body weight).
(§5) Hemoglobin and then the haptoglobin of the invention were administered in the same manner and dose in the case of both the first and the second groups.
On the fourth day of administration, the survival of the rabbits of each group was examined.

[9] = tested on: rabbits; assay: Histopathological examination of rabbits after haptoglobin and/or hemoglobin administration; type: in vivo
Description: as §2, §3, §4, §5

[10] = tested on: patient; assay: Clinical application to a patient (pelvis fracture, urethra rupture and bleeding shock); type: in vivo, human
Description: An example, in which the haptoglobin prepared in Example 2 was clinically applied to a patient, is illustrated below.
The patient was a person, who had been severely stricken on the left waist with lumber that had fallen down during their work and had been sent to hospital as an emergency case. The diagnosis was pelvis fracture, urethra rupture and bleeding shock. Immediately after hospitalization, the patient was subjected to an operation for urinary tract reconstruction. During the operation, the total amount of bleeding was 7,500 ml, the total amount of blood transfused was 4,200 ml, and the total artificial expander transfused was 4,200 ml. […] The clinical progress of the patient after the operation is shown in the accompanying drawing. […] At this stage, 250 ml of a 5% solution of the haptoglobin prepared according to the present invention in isotonic sodium chloride solution was administered to the patient drop-wise intravenously.

[11] = tested on: mouse or rat and humans; assay: Toxicity / adverse effects on injection of the aqueous solution of haptoglobin; type: in vivo, human
[12] = First group: haptoglobin 0.8 g/kg i.v. once a day
[13] = Third group: hemoglobin 0.4 g/kg then haptoglobin 0.8 g/kg i.v. once a day
[14] = 250 ml of a 5% solution, drop-wise intravenously
[15] = Second group: hemoglobin 0.4 g/kg i.v. once a day

Residual hemoglobin-binding capacity of haptoglobin after heat treatment ([1]; stabilizer amount 15%): 50%
Residual hemoglobin-binding capacity of haptoglobin after heat treatment ([1]; stabilizer amount 20%): 75%
Residual hemoglobin-binding capacity of haptoglobin after heat treatment ([2]; stabilizer amount 20%): 83%
Compound: C[C@H](N)C(=O)O [Alanine, alanine]

Residual hemoglobin-binding capacity of haptoglobin after heat treatment ([1]; stabilizer amount 15%): 45%
Residual hemoglobin-binding capacity of haptoglobin after heat treatment ([1]; stabilizer amount 20%): 60%
Residual hemoglobin-binding capacity of haptoglobin after heat treatment ([2]; stabilizer amount 20%): 72%
Compound: OC[C@H]1OC(O)[C@H](O)[C@@H](O)[C@@H]1O (some centres unmarked) [Glucose, glucose]

Residual hemoglobin-binding capacity of haptoglobin after heat treatment ([1]; stabilizer amount 2.25%): 20%
Residual hemoglobin-binding capacity of haptoglobin after heat treatment ([1]; stabilizer amount 5%): 35%
Residual hemoglobin-binding capacity of haptoglobin after heat treatment ([1]; stabilizer amount 10%): 70%
Residual hemoglobin-binding capacity of haptoglobin after heat treatment ([1]; stabilizer amount 15%): 95%
Residual hemoglobin-binding capacity of haptoglobin after heat treatment ([1]; stabilizer amount 20%): 95%
Residual hemoglobin-binding capacity of haptoglobin after heat treatment ([2]; stabilizer amount 20%): 92%
Compound: NCC(=O)O [Glycine, glycine]

Compound: OC[C@@H](O)[C@@H](O)[C@H](O)[C@H](O)CO [Mannitol, mannitol]
Residual hemoglobin-binding capacity of haptoglobin after heat treatment ([1]; stabilizer amount 5%): 15%
Residual hemoglobin-binding capacity of haptoglobin after heat treatment ([1]; stabilizer amount 7%): 40%
Residual hemoglobin-binding capacity of haptoglobin after heat treatment ([1]; stabilizer amount 10%): 55%
Residual hemoglobin-binding capacity of haptoglobin after heat treatment ([1]; stabilizer amount 15%): 80%
Residual hemoglobin-binding capacity of haptoglobin after heat treatment ([1]; stabilizer amount 20%): 85%
Residual hemoglobin-binding capacity of haptoglobin after heat treatment ([2]; stabilizer amount 20%): 85%

Compound: OC[C@@H](O)[C@@H](O)[C@H](O)[C@@H](O)CO [Sorbitol, sorbitol]
Residual hemoglobin-binding capacity of haptoglobin after heat treatment ([2]; stabilizer amount 20%): 76%

Residual hemoglobin-binding capacity of haptoglobin after heat treatment ([2]; stabilizer amount 20%): 68%
Compound: OC[C@H]1O[C@@](CO)(O[C@H]2O[C@H](CO)[C@@H](O)[C@H](O)[C@H]2O)[C@@H](O)[C@@H]1O [Sucrose, sucrose]

Compound: Example 1 before treatment: haptoglobin solution of Example 1 before the treatment with the ion exchanger
Hypotensive activity [3]: 18%

Compound: Example 2 before treatment: haptoglobin solution of Example 2 before the treatment with the ion exchanger
Hypotensive activity [3]: 12.0%

Compound: Example 2: sterile aqueous haptoglobin solution from Cohn fraction IV, heated with 20% mannitol, purified on GE Cellulose (guanidoethyl cellulose)
Hemoglobin-binding capacity [4]: 0.68 mg hemoglobin/mg haptoglobin
LD50 [5]: ≥ 12000 mg/kg
LD50 [6]: ≥ 10000 mg/kg
Hypotensive activity [3]: 6.0%
HB-Ag [7]: Negative

Compound: Example 3 before treatment: haptoglobin solution of Example 3 before the treatment with the ion exchanger
Hypotensive activity [3]: 24.0%

Compound: Experiment 4: haptoglobin solution by the method of Example 1 with CM-cellulose, non-adsorbed fraction, 0.05 M phosphate buffer (pH 7.0)
Hemoglobin-binding capacity [4]: 0.61 mg hemoglobin/mg haptoglobin
LD50 [5]: ≥ 11700 mg/kg
LD50 [6]: ≥ 10500 mg/kg
Hypotensive activity [3]: 9.8%
HB-Ag [7]: Negative

Compound: Experiment 5: haptoglobin solution by the method of Example 1 with CM-Sephadex, non-adsorbed fraction, 0.05 M phosphate buffer (pH 7.0)
Hemoglobin-binding capacity [4]: 0.62 mg hemoglobin/mg haptoglobin
LD50 [5]: ≥ 11700 mg/kg
LD50 [6]: ≥ 10500 mg/kg
Hypotensive activity [3]: 9.0%
HB-Ag [7]: Negative

Compound: haptoglobin
Hemoglobin-binding capacity after heat treatment in the absence of stabilizer ([1]; absence of stabilizer): lost its hemoglobin-binding capacity
Activity of haptoglobin after heat treatment ([1]; aqueous solution without stabilizer, 60° C. for 10 hours): substantially nil
Residual hemoglobin-binding capacity of haptoglobin after heat treatment ([1]; no stabilizer (None)): ≈ 0%
Haptoglobin activity maintained after heat treatment ([1]; with stabilizer, 60° C. and 10 hours): 95%
Number of dead [8, 12]: 0
Number of survival [8, 12]: 10
Number of dead [8, 13]: 1
Number of survival [8, 13]: 9
Histopathology ([9]; First group: haptoglobin for 14 days): no change was observed in its kidney, spleen and lung, and only slight narrowing of sinusoid and deposition of iron were observed in the liver
Prevention of renal troubles caused by hemoglobin; adverse effects (conclusion) ([9]; rabbits, Example 6): does not substantially bring about any adverse effects and has the excellent effect of preventing renal troubles caused by hemoglobin
Amount of urine [10, 14]: increase
General symptoms of the patient [10, 14]: gradually improved
Time to disappearance of blood pigments from the urine ([10]; 250 ml of a 5% solution, drop-wise intravenously, person): blood pigments disappeared from the urine within several hours after haptoglobin administration
Adverse effect due to the administration ([10]; even 6 months after recovery): No adverse effect
Adverse effect ([11]; 5% solution in isotonic sodium chloride, drop-wise intravenously, human adult): no adverse effect is observed at all
Toxicity ([11]; injected in large quantities into mouse, rat, humans): extremely low
Adverse effects on injection in large quantities ([11]; mouse or rat and humans): no adverse effects
Residual hemoglobin-binding capacity of haptoglobin after heat treatment ([2]; no stabilizer (None)): 0%

Compound: hemoglobin
Number of dead [8, 15]: 7
Number of survival [8, 15]: 3
Histopathology ([9]; Second group: hemoglobin for 6 days): marked deposition of iron was observed from proximal tuble to collecting tube of the kidney, thinning of renal epithelial cells was observed, propagation of reticular cells was observed in the spleen, and marked narrowing of sinusoid and deposition of iron were observed in the liver
